Data reported in the supplement of paper PMC7877785.
± gives the uncertainty stated by the source.

Assay: self-splicing fitness, log relative to wild type (ln ratio); higher = more splicing; Tetrahymena group I intron in knt gene, E. coli kanamycin selection, DiMSum; sequences stand for … in CUCUCU…GGAGGGAAAAGUUAUCAGGCAUGCACCUGGUAGCUAGUCUUUAAACCAAUAGAUUGCAUCGGUUUAAAAGGCAAGACCGUCAAAUUGCGGGAAAGGGGUCAACAGCCGUUCAGUACCAAGUCUCAGGGGAAACUUUGAGAUGGCCUUGCAAAGGGUAUGGUAAUAAGCUGACGGACAUGGUCCUAACCACGCAGCCAAGUCCUAAGUCAACAGAUCUUCUGUUGAUAUGGAUGCAGUUCACAGACUAAAUGUCGGUCGGGGAAGAUGUAUUCUUCUCAUAAGAUAUAGUCGGACCUCUCCUUAAUGGGAGCUAGCGGAUGAAGUGAUGCAACACUGGAGCCGCUGGGAACUAAUUUGUAUGCGAAAGUAUAUUGAUUAGUUUUGGAGUACUCGUGGUCG
Summary of the method: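 Six replicate transformations of E. coli BL21(DE3) with a pET-22b(+) library were grown overnight at 37°C or 30°C. The library randomised all eight P1ex-region intron nucleotides, the intron lying in the knt kanamycin-resistance gene, and plates were LB agar with or without 25 μg/mL kanamycin plus 100 μg/mL carbenicillin, 50 μM IPTG and 0.2% rhamnose. Pooled colonies were amplicon-sequenced on an Illumina HiSeq 2500, and fitness is the DiMSum error-weighted combination of wild-type-normalised replicate fold changes, kanamycin versus none.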

## CACGAGCAAUAUUACGUUUU
30 °C
  self-splicing fitness (ln): -3.49 ± 0.15
37 °C
  self-splicing fitness (ln): -2.94 ± 0.18

## CACUAGCAAUAUUACGAACU
30 °C
  self-splicing fitness (ln): -2.65 ± 0.1
37 °C
  self-splicing fitness (ln): -1.99 ± 0.15

## CACUAGCAAUAUUACGACUA
30 °C
  self-splicing fitness (ln): -2.82 ± 0.23
37 °C
  self-splicing fitness (ln): -1.43 ± 0.2

## CACUAGCAAUAUUACGAGUG
30 °C
  self-splicing fitness (ln): -3.45 ± 0.2
37 °C
  self-splicing fitness (ln): -2.73 ± 0.22

## CACUAGCAAUAUUACGAUUC
30 °C
  self-splicing fitness (ln): -3.02 ± 0.23
37 °C
  self-splicing fitness (ln): -1.14 ± 0.26

## CACUAGCAAUAUUACGCAUG
30 °C
  self-splicing fitness (ln): -1.95 ± 0.13
37 °C
  self-splicing fitness (ln): -1.75 ± 0.21

## CACUAGCAAUAUUACGCUCG
30 °C
  self-splicing fitness (ln): -0.657 ± 0.073
37 °C
  self-splicing fitness (ln): 0.214 ± 0.089

## CACUAGCAAUAUUACGGAAG
30 °C
  self-splicing fitness (ln): -0.706 ± 0.088
37 °C
  self-splicing fitness (ln): -0.266 ± 0.097

## CACUAGCAAUAUUACGGAUA
30 °C
  self-splicing fitness (ln): -2.41 ± 0.28
37 °C
  self-splicing fitness (ln): -2.22 ± 0.28

## CACUAGCAAUAUUACGGCAC
30 °C
  self-splicing fitness (ln): -2.4 ± 0.11
37 °C
  self-splicing fitness (ln): -1.53 ± 0.18

## CACUAGCAAUAUUACGGGGG
30 °C
  self-splicing fitness (ln): -2.43 ± 0.18
37 °C
  self-splicing fitness (ln): -1.5 ± 0.17

## CACUAGCAAUAUUACGGGGU
30 °C
  self-splicing fitness (ln): -3.32 ± 0.19
37 °C
  self-splicing fitness (ln): -2.37 ± 0.2

## CACUAGCAAUAUUACGUGCA
30 °C
  self-splicing fitness (ln): -2.44 ± 0.17
37 °C
  self-splicing fitness (ln): -1.99 ± 0.23

## CACUAGCAAUAUUACGUGCG
30 °C
  self-splicing fitness (ln): -2.13 ± 0.081
37 °C
  self-splicing fitness (ln): -0.945 ± 0.082

## CACUAGCAAUAUUACGUUCU
30 °C
  self-splicing fitness (ln): -3.24 ± 0.17
37 °C
  self-splicing fitness (ln): -1.39 ± 0.14

## CAGAAGCAAUAUUACGACCA
30 °C
  self-splicing fitness (ln): -0.857 ± 0.24

## CAGAAGCAAUAUUACGACGA
30 °C
  self-splicing fitness (ln): -1.52 ± 0.18
37 °C
  self-splicing fitness (ln): -0.939 ± 0.17

## CAGAAGCAAUAUUACGAGAA
37 °C
  self-splicing fitness (ln): -2.3 ± 0.35

## CAGAAGCAAUAUUACGAGAC
30 °C
  self-splicing fitness (ln): -1.15 ± 0.3
37 °C
  self-splicing fitness (ln): -1.38 ± 0.28

## CAGAAGCAAUAUUACGAGCG
30 °C
  self-splicing fitness (ln): -0.175 ± 0.068
37 °C
  self-splicing fitness (ln): 0.538 ± 0.086

## CAGAAGCAAUAUUACGAGUC
30 °C
  self-splicing fitness (ln): -3.79 ± 0.48
37 °C
  self-splicing fitness (ln): -2.16 ± 0.32

## CAGAAGCAAUAUUACGAUCA
30 °C
  self-splicing fitness (ln): -2.19 ± 0.14
37 °C
  self-splicing fitness (ln): -1.84 ± 0.17

## CAGAAGCAAUAUUACGCAGG
30 °C
  self-splicing fitness (ln): -2.75 ± 0.15
37 °C
  self-splicing fitness (ln): -1.73 ± 0.13

## CAGAAGCAAUAUUACGCCAA
30 °C
  self-splicing fitness (ln): -3.35 ± 0.38

## CAGAAGCAAUAUUACGCGGC
30 °C
  self-splicing fitness (ln): -0.924 ± 0.15

## CAGAAGCAAUAUUACGCUAA
30 °C
  self-splicing fitness (ln): -4.46 ± 0.42
37 °C
  self-splicing fitness (ln): -1.97 ± 0.26

## CAGAAGCAAUAUUACGCUGC
37 °C
  self-splicing fitness (ln): -2.34 ± 0.49

## CAGAAGCAAUAUUACGGACG
30 °C
  self-splicing fitness (ln): -0.743 ± 0.092
37 °C
  self-splicing fitness (ln): -0.739 ± 0.12

## CAGAAGCAAUAUUACGGGAU
30 °C
  self-splicing fitness (ln): -3.18 ± 0.17
37 °C
  self-splicing fitness (ln): -2.9 ± 0.2

## CAGAAGCAAUAUUACGGGGG
30 °C
  self-splicing fitness (ln): -3.09 ± 0.16
37 °C
  self-splicing fitness (ln): -2.75 ± 0.21

## CAGAAGCAAUAUUACGGUGG
30 °C
  self-splicing fitness (ln): -1.26 ± 0.067
37 °C
  self-splicing fitness (ln): -1.12 ± 0.079

## CAGAAGCAAUAUUACGGUUA
30 °C
  self-splicing fitness (ln): -2.25 ± 0.13
37 °C
  self-splicing fitness (ln): -1.72 ± 0.12

## CAGAAGCAAUAUUACGUAGA
30 °C
  self-splicing fitness (ln): -3.54 ± 0.1
37 °C
  self-splicing fitness (ln): -0.762 ± 0.075

## CAGAAGCAAUAUUACGUGUA
30 °C
  self-splicing fitness (ln): -3.81 ± 0.17
37 °C
  self-splicing fitness (ln): -1.25 ± 0.094

## CAGAAGCAAUAUUACGUUCC
37 °C
  self-splicing fitness (ln): -1.75 ± 0.47

## CAGCAGCAAUAUUACGAACG
30 °C
  self-splicing fitness (ln): -0.451 ± 0.073
37 °C
  self-splicing fitness (ln): 0.304 ± 0.11

## CAGCAGCAAUAUUACGACCA
30 °C
  self-splicing fitness (ln): -1.88 ± 0.19
37 °C
  self-splicing fitness (ln): -1.22 ± 0.18

## CAGCAGCAAUAUUACGAGGA
30 °C
  self-splicing fitness (ln): -2.63 ± 0.2
37 °C
  self-splicing fitness (ln): -2.42 ± 0.23

## CAGCAGCAAUAUUACGCACA
30 °C
  self-splicing fitness (ln): -0.847 ± 0.088
37 °C
  self-splicing fitness (ln): -0.607 ± 0.093

## CAGCAGCAAUAUUACGCAUA
30 °C
  self-splicing fitness (ln): -1.81 ± 0.14
37 °C
  self-splicing fitness (ln): -1.43 ± 0.17
